Patent publication US20060259987A1 (UNIVERSITY OF UTAH RESEARCH FOUNDATION, published 2006)

T1: human neutrophil elastase (human, UniProt P08246 30-247, limits assumed)
T1 sequence (looked up): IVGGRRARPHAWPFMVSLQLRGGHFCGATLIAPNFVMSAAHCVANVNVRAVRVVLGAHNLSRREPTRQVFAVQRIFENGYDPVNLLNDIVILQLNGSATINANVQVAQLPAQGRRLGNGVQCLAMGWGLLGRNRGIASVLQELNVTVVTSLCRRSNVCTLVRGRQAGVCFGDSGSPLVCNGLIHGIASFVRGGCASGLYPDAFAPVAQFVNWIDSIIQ

T2: human neutrophil cathepsin G (human, UniProt P08311 21-244)
T2 sequence (looked up): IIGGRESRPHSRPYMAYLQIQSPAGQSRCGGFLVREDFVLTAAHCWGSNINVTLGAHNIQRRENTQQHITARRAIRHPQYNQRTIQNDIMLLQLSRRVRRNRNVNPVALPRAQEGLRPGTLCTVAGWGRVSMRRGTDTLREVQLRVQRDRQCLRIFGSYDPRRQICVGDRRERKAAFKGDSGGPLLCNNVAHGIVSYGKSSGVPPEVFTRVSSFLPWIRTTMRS


What was measured:
human thrombin = human thrombin (human, UniProt P00734 328-622); assay: cell-based or functional assay
human factor Xa = human factor Xa (human, UniProt P00742 41-179; P00742 235-488, limits assumed); assay: cell-based or functional assay
human factor Xa, sequence (P00742 41-179 limits assumed, chain 1 of 2): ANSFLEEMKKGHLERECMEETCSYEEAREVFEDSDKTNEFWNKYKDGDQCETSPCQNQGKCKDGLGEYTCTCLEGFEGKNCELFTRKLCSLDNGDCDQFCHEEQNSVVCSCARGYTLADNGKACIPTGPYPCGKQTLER
human factor Xa, sequence (P00742 235-488 limits assumed, chain 2 of 2): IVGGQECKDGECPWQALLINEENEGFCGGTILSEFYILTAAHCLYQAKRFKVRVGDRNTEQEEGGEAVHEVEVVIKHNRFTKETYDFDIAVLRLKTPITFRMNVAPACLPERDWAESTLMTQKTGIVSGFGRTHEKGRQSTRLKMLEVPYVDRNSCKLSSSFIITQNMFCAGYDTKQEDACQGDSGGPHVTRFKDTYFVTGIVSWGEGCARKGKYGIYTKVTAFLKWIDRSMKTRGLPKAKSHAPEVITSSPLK

[1] = biological target: T1, human neutrophil elastase; assay: cell-based or functional assay
[2] = biological target: T2, human neutrophil cathepsin G; assay: cell-based or functional assay
thrombin [3] = biological target: T3, thrombin (human, UniProt P00734 328-622); assay: cell-based or functional assay
factor Xa [4] = biological target: T4, factor Xa (human, UniProt P00742 41-179; P00742 235-488, limits assumed); assay: cell-based or functional assay
T4 sequence (P00742 41-179 limits assumed, form in doubt, chain 1 of 2): as the sequence (P00742 41-179 limits assumed, chain 1 of 2) above
T4 sequence (P00742 235-488 limits assumed, form in doubt, chain 2 of 2): as the sequence (P00742 235-488 limits assumed, chain 2 of 2) above

factor Xa [5] = biological target: T4, factor Xa; assay: heparin cofactor assay, HCA expt #2; ATIII titrated on 10 nM fXa + 50 ug/ml UFH, chromogenic readout
Protocol: (§1) After 3 minutes, the reactions were quenched with polybrene and chromogenic substrate S2238 (thrombin) or S2765 (fXa), and the initial rate of chromophore production (405 nm) recorded to obtain a measurement residual, uninhibited thrombin or factor Xa. IC50s were determined from plots of ATIII concentration vs. percent residual target enzyme activity.

thrombin [6] = biological target: T3, thrombin; assay: heparin cofactor assay, HCA expt #2; ATIII titrated on 10 nM thrombin + 50 ug/ml UFH, chromogenic readout
Protocol: as §1

Row | Binder | rsd. IIa catG; CA expt #7; stg1 conc 200 (thrombin [3]) | rsd. IIa catG; CA expt #8; stg1 conc 200 (thrombin [3]) | rsd. IIa hne; CA expt #7; stg1 conc 200 (thrombin [3]) | rsd. IIa hne; CA expt #8; stg1 conc 200 (thrombin [3]) | rsd. IIa no add; CA expt #7; stg1 conc 200 (thrombin [3]) | rsd. IIa no add; CA expt #8; stg1 conc 200 (thrombin [3]) | rsd. Xa catG; CA expt #7; stg1 conc 200 (factor Xa [4]) | rsd. Xa catG; CA expt #8; stg1 conc 200 (factor Xa [4]) | rsd. Xa hne; CA expt #7; stg1 conc 200 (factor Xa [4]) | rsd. Xa hne; CA expt #8; stg1 conc 200 (factor Xa [4]) | rsd. Xa no add; CA expt #7; stg1 conc 200 (factor Xa [4]) | rsd. Xa no add; CA expt #8; stg1 conc 200 (factor Xa [4]) | IC50 (factor Xa [5]) [nM] | IC50 (thrombin [6]) [nM] | other results
1 | 13C.511 (other) SPVDICTAKPRDIPMNPMCIYRSPEKKATEDEGSEQKIPEATNRRVWELSKANSRFATTFYQHLADSKNDNDNIFLSPLSISTAFAMTKLGACNDTLQQLMEVFKFDTISEKTSDQIHFFFAKLNCRLYRKANKASKLVSANRLFGDKSLTFNETYQDISELVYGAKLQPLDFKENAEQSRAAINKWVSNKTEGRITDVIPSEAINELTVLVLVNTIYFKGLWKSKFSPENTRKELFYKADGESCSASMMYQEGKFRYRRVAEGTQVLELPFKGDDITMVLILPKPEKSLAKVEKELTPEVLQEWLDELEEMMLVVHMPRFRIEDGFSLKEQLQDMGLVDLFSPEKSKLPGIVAEGRDDLYVSDAFHKAFLEVNEEGSEAAASTALEIAGRSLNPNRVTFKANRPFLVFIREVPLNTIIFMGRVANPCVK |  |  |  |  |  |  |  |  |  |  |  |  |  |  | IC50 IIa/UFH (HCA #5) (human thrombin): 150 nM; IC50 IIa/UFH (HCA #6) (human thrombin): 130 nM; rsd IIa, no add (CA #51, stg 1 conc 200) (human thrombin): 2%; rsd IIa, no add (CA #52, stg 1 conc 200) (human thrombin): 5%; IC50 fXa/UFH (HCA #5) (human factor Xa): 30 nM; IC50 fXa/UFH (HCA #6) (human factor Xa): 40 nM; rsd Xa, no add (CA #51, stg 1 conc 200) (human factor Xa): -1%; rsd Xa, no add (CA #52, stg 1 conc 200) (human factor Xa): 2%; rsd IIa, HNE (CA #51, stg 1 conc 200) [1]: 54%; rsd IIa, HNE (CA #52, stg 1 conc 200) [1]: 84%; rsd Xa, HNE (CA #51, stg 1 conc 200) [1]: -3%; rsd Xa, HNE (CA #52, stg 1 conc 200) [1]: 92%; rsd IIa, catG (CA #51, stg 1 conc 200) [2]: 1%; rsd IIa, catG (CA #52, stg 1 conc 200) [2]: 5%; rsd Xa, catG (CA #51, stg 1 conc 200) [2]: -2%; rsd Xa, catG (CA #52, stg 1 conc 200) [2]: 1%
2 | 13C.432 (other, Made in Drosophila S2 cells (DES) on the S137A background; N-terminus printed as SPVDI---) SPVDICTAKPRDIPMNPMCIYRSPEKKATEDEGSEQKIPEATNRRVWELSKANSRFATTFYQHLADSKNDNDNIFLSPLSISTAFAMTKLGACNDTLQQLMEVFKFDTISEKTSDQIHFFFAKLNCRLYRKANKASKLVSANRLFGDKSLTFNETYQDISELVYGAKLQPLDFKENAEQSRAAINKWVSNKTEGRITDVIPSEAINELTVLVLVNTIYFKGLWKSKFSPENTRKELFYKADGESCSASMMYQEGKFRYRRVAEGTQVLELPFKGDDITMVLILPKPEKSLAKVEKELTPEVLQEWLDELEEMMLVVHMPRFRIEDGFSLKEQLQDMGLVDLFSPEKSKLPGIVAEGRDDLYVSDAFHKAFLEVNEEGSEAAASTELEIAGRSLNPNRVTFKANRPFLVFIREVPLNTIIFMGRVANPCVK | 5 % of activity without ATIII | 8 % of activity without ATIII | 3 % of activity without ATIII | 16 % of activity without ATIII | 5 % of activity without ATIII | 5 % of activity without ATIII | 3 % of activity without ATIII | 1 % of activity without ATIII | 2 % of activity without ATIII | 1 % of activity without ATIII | 4 % of activity without ATIII | 1 % of activity without ATIII | 45 | 460 | 
3 | 13C.431 (other, Made in Drosophila S2 cells (DES) on the S137A background; N-terminus printed as SPVDI---; primer codon CTC gives L) SPVDICTAKPRDIPMNPMCIYRSPEKKATEDEGSEQKIPEATNRRVWELSKANSRFATTFYQHLADSKNDNDNIFLSPLSISTAFAMTKLGACNDTLQQLMEVFKFDTISEKTSDQIHFFFAKLNCRLYRKANKASKLVSANRLFGDKSLTFNETYQDISELVYGAKLQPLDFKENAEQSRAAINKWVSNKTEGRITDVIPSEAINELTVLVLVNTIYFKGLWKSKFSPENTRKELFYKADGESCSASMMYQEGKFRYRRVAEGTQVLELPFKGDDITMVLILPKPEKSLAKVEKELTPEVLQEWLDELEEMMLVVHMPRFRIEDGFSLKEQLQDMGLVDLFSPEKSKLPGIVAEGRDDLYVSDAFHKAFLEVNEEGSEAAASTELEAAGRSLNPNRVTFKANRPFLVFIREVPLNTIIFMGRVANPCVK | 5 % of activity without ATIII | 19 % of activity without ATIII | 4 % of activity without ATIII | 25 % of activity without ATIII | 5 % of activity without ATIII | 14 % of activity without ATIII | 3 % of activity without ATIII | 1 % of activity without ATIII | 3 % of activity without ATIII | 2 % of activity without ATIII | 3 % of activity without ATIII | 2 % of activity without ATIII | 45 | 550 | 
4 | 13C.433 (other, Made in Drosophila S2 cells (DES) on the S137A background; N-terminus printed as SPVDI---) SPVDICTAKPRDIPMNPMCIYRSPEKKATEDEGSEQKIPEATNRRVWELSKANSRFATTFYQHLADSKNDNDNIFLSPLSISTAFAMTKLGACNDTLQQLMEVFKFDTISEKTSDQIHFFFAKLNCRLYRKANKASKLVSANRLFGDKSLTFNETYQDISELVYGAKLQPLDFKENAEQSRAAINKWVSNKTEGRITDVIPSEAINELTVLVLVNTIYFKGLWKSKFSPENTRKELFYKADGESCSASMMYQEGKFRYRRVAEGTQVLELPFKGDDITMVLILPKPEKSLAKVEKELTPEVLQEWLDELEEMMLVVHMPRFRIEDGFSLKEQLQDMGLVDLFSPEKSKLPGIVAEGRDDLYVSDAFHKAFLEVNEEGSEAAASTELELAGRSLNPNRVTFKANRPFLVFIREVPLNTIIFMGRVANPCVK | 5 % of activity without ATIII | 18 % of activity without ATIII | 4 % of activity without ATIII | 20 % of activity without ATIII | 5 % of activity without ATIII | 13 % of activity without ATIII | 2 % of activity without ATIII | 1 % of activity without ATIII | 3 % of activity without ATIII | 1 % of activity without ATIII | 4 % of activity without ATIII | 1 % of activity without ATIII | 30 | 600 | 
5 | 13C.435 (other, Made in Drosophila S2 cells (DES) on the S137A background; N-terminus printed as SPVDI---) SPVDICTAKPRDIPMNPMCIYRSPEKKATEDEGSEQKIPEATNRRVWELSKANSRFATTFYQHLADSKNDNDNIFLSPLSISTAFAMTKLGACNDTLQQLMEVFKFDTISEKTSDQIHFFFAKLNCRLYRKANKASKLVSANRLFGDKSLTFNETYQDISELVYGAKLQPLDFKENAEQSRAAINKWVSNKTEGRITDVIPSEAINELTVLVLVNTIYFKGLWKSKFSPENTRKELFYKADGESCSASMMYQEGKFRYRRVAEGTQVLELPFKGDDITMVLILPKPEKSLAKVEKELTPEVLQEWLDELEEMMLVVHMPRFRIEDGFSLKEQLQDMGLVDLFSPEKSKLPGIVAEGRDDLYVSDAFHKAFLEVNEEGSEAAASTELEWAGRSLNPNRVTFKANRPFLVFIREVPLNTIIFMGRVANPCVK | 5 % of activity without ATIII |  | 4 % of activity without ATIII |  | 5 % of activity without ATIII |  | 3 % of activity without ATIII |  | 3 % of activity without ATIII |  | 3 % of activity without ATIII |  | 34 | 700 | 
6 | 13C.434 (other, Made in Drosophila S2 cells (DES) on the S137A background; N-terminus printed as SPVDI---) SPVDICTAKPRDIPMNPMCIYRSPEKKATEDEGSEQKIPEATNRRVWELSKANSRFATTFYQHLADSKNDNDNIFLSPLSISTAFAMTKLGACNDTLQQLMEVFKFDTISEKTSDQIHFFFAKLNCRLYRKANKASKLVSANRLFGDKSLTFNETYQDISELVYGAKLQPLDFKENAEQSRAAINKWVSNKTEGRITDVIPSEAINELTVLVLVNTIYFKGLWKSKFSPENTRKELFYKADGESCSASMMYQEGKFRYRRVAEGTQVLELPFKGDDITMVLILPKPEKSLAKVEKELTPEVLQEWLDELEEMMLVVHMPRFRIEDGFSLKEQLQDMGLVDLFSPEKSKLPGIVAEGRDDLYVSDAFHKAFLEVNEEGSEAAASTELEFAGRSLNPNRVTFKANRPFLVFIREVPLNTIIFMGRVANPCVK | 5 % of activity without ATIII | 30 % of activity without ATIII | 4 % of activity without ATIII | 12 % of activity without ATIII | 5 % of activity without ATIII | 8 % of activity without ATIII | 2 % of activity without ATIII | 1 % of activity without ATIII | 3 % of activity without ATIII | 1 % of activity without ATIII | 4 % of activity without ATIII | 2 % of activity without ATIII | 17 | 500 | 
